T1: myc-tagged CPSF160 subunit of mouse CPSF (mouse, UniProt Q9EPU4 1-1441, limits assumed)
T1 construct: Co-expressed with IRBIT in COS cells; not shown: myc tag
T1 sequence (looked up): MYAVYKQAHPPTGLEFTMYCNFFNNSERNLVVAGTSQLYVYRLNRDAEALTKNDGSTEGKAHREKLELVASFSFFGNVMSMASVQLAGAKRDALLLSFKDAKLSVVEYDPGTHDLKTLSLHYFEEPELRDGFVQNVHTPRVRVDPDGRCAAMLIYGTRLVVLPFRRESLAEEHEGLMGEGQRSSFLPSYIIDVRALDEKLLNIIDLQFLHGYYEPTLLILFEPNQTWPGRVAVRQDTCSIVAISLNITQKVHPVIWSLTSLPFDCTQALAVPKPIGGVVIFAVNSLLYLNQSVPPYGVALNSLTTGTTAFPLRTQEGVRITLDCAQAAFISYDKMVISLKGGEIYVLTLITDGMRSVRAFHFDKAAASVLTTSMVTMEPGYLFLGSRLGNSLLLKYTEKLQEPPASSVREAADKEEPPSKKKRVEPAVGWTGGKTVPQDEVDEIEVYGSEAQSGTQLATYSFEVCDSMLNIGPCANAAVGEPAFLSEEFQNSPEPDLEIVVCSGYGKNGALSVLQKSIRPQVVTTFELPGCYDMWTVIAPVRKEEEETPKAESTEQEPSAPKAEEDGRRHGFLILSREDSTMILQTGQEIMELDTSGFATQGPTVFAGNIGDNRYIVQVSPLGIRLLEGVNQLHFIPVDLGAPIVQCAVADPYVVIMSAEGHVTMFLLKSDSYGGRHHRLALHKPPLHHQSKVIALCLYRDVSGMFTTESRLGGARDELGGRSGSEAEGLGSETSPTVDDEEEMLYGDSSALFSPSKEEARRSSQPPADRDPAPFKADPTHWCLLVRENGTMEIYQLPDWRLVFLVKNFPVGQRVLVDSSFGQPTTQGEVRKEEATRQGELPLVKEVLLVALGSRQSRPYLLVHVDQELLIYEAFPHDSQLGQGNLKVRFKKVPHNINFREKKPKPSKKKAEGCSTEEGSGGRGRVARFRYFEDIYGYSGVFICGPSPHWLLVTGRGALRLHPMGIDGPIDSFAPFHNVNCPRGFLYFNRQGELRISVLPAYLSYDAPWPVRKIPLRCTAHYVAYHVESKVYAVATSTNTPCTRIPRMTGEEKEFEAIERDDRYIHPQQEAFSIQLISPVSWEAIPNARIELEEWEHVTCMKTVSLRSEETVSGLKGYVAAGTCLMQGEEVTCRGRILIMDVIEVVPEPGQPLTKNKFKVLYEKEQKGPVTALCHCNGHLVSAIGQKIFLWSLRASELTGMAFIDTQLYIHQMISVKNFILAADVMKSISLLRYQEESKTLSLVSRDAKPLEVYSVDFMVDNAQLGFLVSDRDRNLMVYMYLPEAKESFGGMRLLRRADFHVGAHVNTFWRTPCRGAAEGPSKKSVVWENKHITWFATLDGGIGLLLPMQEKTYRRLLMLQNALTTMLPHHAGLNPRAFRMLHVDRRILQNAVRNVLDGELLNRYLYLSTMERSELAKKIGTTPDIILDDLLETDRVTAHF

B1: mouse IRBIT (IP3 receptor-binding protein; IP3R-binding protein released with inositol 1,4,5-trisphosphate) (other)
chain: MSMPDAMPLPGVGEELKQAKEIEDAEKYSFMATVTKAPKKQIQFADDMQEFTKFPTKTGRRSLSRSISQSSTDSYSSAASYTDSSDDEVSPREKQQTNSKGSSNFCVKNIKQAEFGRREIEIAEQDMSALISLRKRAQGEKPLAGAKIVGCTHITAQTAVLIETLCALGAQCRWSACNIYSTQNEVAAALAEAGVAVFAWKGESEDDFWWCIDRCVNMDGWQANMILDDGGDLTHWVYKKYPNVFKKIRGIVEESVTGVHRLYQLSKAGKLCVPAMNVNDSVTKQKFDNLYCCRESILDGLKRTTDVMFGGKQVVVCGYGEVGKGCCAALKALGAIVYITEIDPICALQACMDGFRVVKLNEVIRQVDVVITCTGNKNVVTREHLDRMKNSCIVCNMGHSNTEIDVTSLRTPELTWERVRSQVDHVIWPDGKRVVLLAEGRLLNLSCSTVPTFVLSITATTQALALIELYNAPEGRYKQDVYLLPKKMDEYVASLHLPSFDAHLTELTDDQAKYLGLNKNGPFKPNYYRY
notes: also called Mouse-derived IRBIT

Key:
[1] = molecular target: T1, myc-tagged CPSF160 subunit of mouse CPSF; experiment: co-expression in COS cells, co-immunoprecipitation, detection with anti-IRBIT and anti-myc antibodies
Method: CPSF is a group of conjugated proteins consisting of 4 subunits: CPSF160, CPSF100, CPSF73, and CPSF30. First, to reveal to which one of the 4 subunits IRBIT binds, myc-tagged cDNAs prepared by tagging each subunit with myc were expressed together with IRBIT in various combinations by COS cells or the like and then the way in which coprecipitation occurs upon immunoprecipitation of IRBIT or CPSF was examined.
DNA was prepared by fusing DNA encoding an myc tag to cDNA encoding the full-length of or each subunit of CPSF. The thus prepared DNA was inserted into a vector for mammals. Meanwhile, cDNA encoding IRBIT was also inserted into the same vector. COS cells were transformed with the thus prepared vector and then the above DNA was co-expressed.
Cells were separated by centrifugation and then lysed. Cytoplasmic fractions were collected and then the binding of IRBIT to CPSF was detected using an anti-IRBIT antibody (JP2004-129612 A) and an anti-myc antibody.

[2] = molecular target: B1; experiment: immunoprecipitation from mouse cerebellum with anti-IRBIT antibody
Method: (1) Mouse IRBIT and Myc-PIPKIIα, β, or γ were over-expressed in COS-7, followed by immunoprecipitation. Specifically, cells were solubilized with a lysis buffer (10 mM Hepes, 100 mM NaCl, 2 mM EDTA, 1% P-40, pH 7.4) and then centrifuged (20000×g, 30 minutes) to collect supernatants. Subsequently, an anti-Myc antibody or an anti-IRBIT antibody was added and then reaction was performed for 1 hour. Furthermore, protein G Sepharose® was added before one hour reaction, and the immune complex was washed with a lysis buffer and then eluted with a SDS-PAGE sample buffer. Subsequently, Western blotting was performed using an anti-Myc antibody or an anti-IRBIT antibody. As a result, IRBIT was coprecipitated with Myc-PIPKIIα, β, and γ (FIG. 4). (2) Immunoprecipitation was performed using an anti-IRBIT antibody and the mouse cerebellum, so that PIPKIIα was coprecipitated (FIG. 5). The in vivo binding of IRBIT with PIPKII was confirmed based on the results. (3) Mouse IRBIT and Myc-PIPKIIγ were overexpressed in COS-7 and then immunostaining was performed. Specifically, after fixation with 4% paraformaldehyde, transmembrane treatment with 0.1% Triton X-100 and blocking treatment with 2% goat serum were performed, a mouse anti-Myc antibody and a rabbit anti-IRBIT antibody were added, and then reaction was performed at room temperature for 1 hour. […]

Binder | binding result [1] | binding result [2]
B1 | binds | 
mouse cerebellum PIPKIIα (enzyme, UniProt O70172 2-405, looked up, Endogenous protein coprecipitated with an anti-IRBIT antibody) ATPGNLGSSVLASKTKTKKKHFVAQKVKLFRASDPLLSVLMWGVNHSINELSHVQIPVMLMPDDFKAYSKIKVDNHLFNKENMPSHFKFKEYCPMVFRNLRERFGIDDQDFQNSLTRSAPLPNDSQARSGARFHTSYDKRYVIKTITSEDVAEMHNILKKYHQYIVECHGVTLLPQFLGMYRLNVDGVEIYVIVTRNVFSHRLSVYRKYDLKGSTVAREASDKEKAKELPTLKDNDFINEGQKIYIDDNNKKIFLEKLKKDVEFLAQLKLMDYSLLVGIHDVERAEQEEVECEENDGEEEGESDSTHPIGTPPDSPGNTLNSSPPLAPGEFDPNIDVYAIKCHENAPRKEVYFMAIIDILTHYDAKKKAAHAAKTVKHGAGAEISTVNPEQYSKRFLDFIGHIL |  | binds
